From publication PMC10289200, “Detection of Arc/Arg3.1 oligomers in rat brain: constitutive and synaptic activity-evoked dimer expression in vivo” (Frontiers in Molecular Neuroscience, 2023)
Each block holds one binder with its values, some of them ahead of it.

How the values were obtained:
[1] = target: the molecule itself; assay: cross-linking; in situ, 0.2 mM DSG, 10 min, 4 °C, in PBS pH 7.4, harvested SH-SY5Y cells (untreated or carbachol) or cortical neuronal cultures (untreated or BDNF); quenched with 50 mM Tris-HCl; SDS-PAGE with DTT and immunoblot
[2] = target: the molecule itself; assay: cross-linking; thiol-cleavable DSP on rat CA tissue; non-reducing SDS-PAGE and immunoblot; crosslinks reversed by DTT
[3] = target: the molecule itself; assay: cross-linking; DSG-crosslinked pooled rat DG (1, 2, 4 h post-HFS), then Arc immunoprecipitation (rabbit anti-Arc antibody or ALFA-H11 nanobody) and Arc immunoblot
[4] = target: the molecule itself; assay: cross-linking; in situ/ex vivo, 0.5 mM DSG, 30 min, 37 °C, PBS pH 7.4, ~0.5 mm slices of rat DG, CA or cortex (naive, HFS-LTP or BDNF-LTP); lysis in 1% Triton X-100; SDS-PAGE with DTT and immunoblot
[5] = target: the molecule itself; assay: cross-linking + affinity purification with mass spectrometry; in situ, 0.1 mM DSG, 10 min, 4 °C, mTq2-Arc transfected HEK293FT cells; immunoblot, Arc immunoprecipitation and LC-MS/MS of gel-excised bands (~75, 150, 250, >250 kDa)
[6] = target: the molecule itself; assay: SDS-PAGE and immunoblot without cross-linker; non-crosslinked (DMSO only) cells or tissue, boiled in Laemmli buffer with DTT; species that resist SDS
[7] = target: T1, DJ-1, endogenous in SH-SY5Y cells (human (endogenous in SH-SY5Y)), Q99497; assay: cross-linking; in situ, 0.2 mM DSG, 10 min, 4 °C, in PBS pH 7.4, harvested SH-SY5Y cells (untreated or carbachol) or cortical neuronal cultures (untreated or BDNF); quenched with 50 mM Tris-HCl; SDS-PAGE with DTT and immunoblot; settings: remark: other sources report otherwise
T1 chain: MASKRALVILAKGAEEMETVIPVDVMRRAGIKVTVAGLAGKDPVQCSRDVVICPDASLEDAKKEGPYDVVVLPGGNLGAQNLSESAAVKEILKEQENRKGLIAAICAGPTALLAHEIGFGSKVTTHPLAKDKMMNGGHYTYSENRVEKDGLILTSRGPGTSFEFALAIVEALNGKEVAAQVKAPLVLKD

B1: Activity-regulated cytoskeleton-associated protein (Arc), endogenous in human SH-SY5Y neuroblastoma cells (natural protein, human (endogenous in SH-SY5Y), UniProt Q7LC44 1-396, looked up)
chain: MELDHRTSGGLHAYPGPRGGQVAKPNVILQIGKCRAEMLEHVRRTHRHLLAEVSKQVERELKGLHRSVGKLESNLDGYVPTSDSQRWKKSIKACLCRCQETIANLERWVKREMHVWREVFYRLERWADRLESTGGKYPVGSESARHTVSVGVGGPESYCHEADGYDYTVSPYAITPPPAAGELPGQEPAEAQQYQPWVPGEDGQPSPGVDTQIFEDPREFLSHLEEYLRQVGGSEEYWLSQIQNHMNGPAKKWWEFKQGSVKNWVEFKKEFLQYSEGTLSREAIQRELDLPQKQGEPLDQFLWRKRDLYQTLYVDADEEEIIQYVVGTLQPKLKRFLRHPLPKTLEQLIQRGMEVQDDLEQAAEPAGPHLPVEDEAETLTPAPNSESVASDRTQPE
notes: Arc (Arg3.1), endogenous in human SH-SY5Y neuroblastoma cells; monomer at ~50 kDa on SDS-PAGE; also called Arg3.1; endogenous Arc; source: endogenous, SH-SY5Y cells (induced with 100 uM carbachol), in cells / lysate
- stoichiometry N [1]: 2

B2: DJ-1, endogenous in rat brain tissue (natural protein, rat (endogenous in rat brain tissue), UniProt O88767 1-189, looked up)
chain: MASKRALVILAKGAEEMETVIPVDIMRRAGIKVTVAGLAGKDPVQCSRDVVICPDTSLEEAKTQGPYDVVVLPGGNLGAQNLSESALVKEILKEQENRKGLIAAICAGPTALLAHEVGFGCKVTSHPLAKDKMMNGSHYSYSESRVEKDGLILTSRGPGTSFEFALAIVEALSGKDMANQVKAPLVLKD
notes: DJ-1, endogenous in rat DG, CA and cortical tissue; also called DJ-I; source: endogenous, rat brain tissue (DG, CA, cortex), in tissue / lysate
- stoichiometry N [2]: 2

B3: Arc, endogenous in rat brain tissue (dentate gyrus, hippocampal CA, cortex) (natural protein, rat (endogenous in rat brain tissue), UniProt Q63053 1-396, looked up)
chain: MELDHMTTGGLHAYPAPRGGPAAKPNVILQIGKCRAEMLEHVRRTHRHLLTEVSKQVERELKGLHRSVGKLENNLDGYVPTGDSQRWKKSIKACLCRCQETIANLERWVKREMHVWREVFYRLERWADRLESMGGKYPVGSEPARHTVSVGVGGPEPYCQEADGYDYTVSPYAITPPPAAGELPEQESVGAQQYQSWVPGEDGQPSPGVDTQIFEDPREFLSHLEEYLRQVGGSEEYWLSQIQNHMNGPAKKWWEFKQGSVKNWVEFKKEFLQYSEGTLSREAIQRELDLPQKQGEPLDQFLWRKRDLYQTLYVDAEEEEIIQYVVGTLQPKFKRFLRHPLPKTLEQLIQRGMEVQDGLEQAAEPSVTPLPTEDETEALTPALTSESVASDRTQPE
notes: Arc (Arg3.1), endogenous in adult Sprague-Dawley rat brain tissue; monomer at ~55 kDa on SDS-PAGE; also called Arg3.1; endogenous Arc; source: endogenous, rat brain tissue (DG, CA, cortex), in tissue / lysate
- stoichiometry N [3]: 2
- ratio of dimer:monomer in the DSG lane (BDNF-LTP, 2 h) [4]: 0.56
- ratio of dimer:monomer in the DSG lane (HFS-LTP, 2 h) [4]: 0.4

B4: Arc N-terminally fused to monomeric Turquoise 2 (mTq2-Arc) (natural protein, UniProt Q63053 1-396, looked up)
chain: B3 chain
notes: Arc; fusion monomer at ~75 kDa on SDS-PAGE; The crosslinking in HEK293FT cells follows Eriksen et al. (2021); the construct may be described there; also called ectopic Arc; source: HEK293FT, transfected (CMV promoter), in cells / lysate; not shown: monomeric Turquoise 2 (mTq2), N-terminal, kept
- stoichiometry N [5]: 2

B5: Arc, endogenous in primary cortical neuronal cultures (natural protein, UniProt Q63053 1-396, looked up)
chain: B3 chain
notes: Arc (Arg3.1), endogenous in primary cortical neurons; also called Arg3.1; source: endogenous, primary cortical neuronal cultures (BDNF 50 ng/mL, 2 h), in cells / lysate
- stoichiometry N [1]: 2

B6: rArc-StrepII-HA, stably expressed in SH-SY5Y cells (natural protein, UniProt Q63053 1-396, looked up)
chain: B3 chain
notes: Arc printed as rArc in the cassette CMV::rArc-StrepII-HA; the species is not spelt out; monomer at ~60 kDa on SDS-PAGE; also called tagged-Arc; exogenous Arc
- stoichiometry N [6]: 2

- stoichiometry N [7]: 2
B7: DJ-1, endogenous in SH-SY5Y cells, Q99497 1-189 (natural protein)
chain: T1 chain
